# T1: hTLT-1 ECD-HPC4 M91A (human, UniProt Q86YW5 16-162)
# T1 construct: As m27; also called Ala mutant 24
# T1 chain: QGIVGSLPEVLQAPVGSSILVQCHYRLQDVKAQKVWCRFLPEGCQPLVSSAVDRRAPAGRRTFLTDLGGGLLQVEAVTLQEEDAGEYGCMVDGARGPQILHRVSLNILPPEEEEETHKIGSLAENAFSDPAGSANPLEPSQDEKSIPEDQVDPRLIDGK
# T2: TLT1 (human TLT-1, reagent of the SPR studies, source NN) (human, UniProt Q86YW5 16-162, limits assumed)
# T2 sequence: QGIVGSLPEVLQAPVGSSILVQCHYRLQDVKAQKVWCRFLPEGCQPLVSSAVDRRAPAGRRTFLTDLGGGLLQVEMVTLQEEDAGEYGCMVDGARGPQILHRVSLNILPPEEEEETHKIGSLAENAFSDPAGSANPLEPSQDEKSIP
# Key:
# [1] = molecular target: T1, hTLT-1 ECD-HPC4 M91A; experiment: SPR (ProteOn), mAb captured by anti-hFc, 100 nM mutant
# Description: Anti-hFc Polyclonal antibody was immobilized onto separate flow cells of a GLM sensor chip using a 1:1 mixture of 0.4 M EDAC [1-ethyl-3-(3-dimethylaminopropyl) carbodiimide hydrochloride] and 0.1 M Sulfo-NHS [N-hydroxysulfosuccinimide]. Each anti-body was diluted in 10 mM sodium acetate pH 5.0 to a concentration of […], and was immobilized to an individual flow cell at 30 μl/min for 240s. The antibodies were immobilized to flow cells A1-A6 (horizontal direction). After immobilization, the active sites on the flow cell were blocked with 1 M ethanolamine. The final immobilization level of capture antibody typically ranged from approximately 9,000 to 10,000 RU in one experiment. Capture of the anti-TLT1 antibodies 0197-0000-0023, 0197-0000-0051, 0197-0000-0061 and 0197-0000-0062 was conducted by diluting to […] into HBS-EP buffer (10 mM HEPES, 150 mM NaCl, 3 mM EDTA, 0.05% surfactant P20, pH 7.4) and injected at 30 μl/min for 60s in vertical direction, creating interspot reference points with only anti-human Fc antibodies. The final capture level of test antibodies typically ranged from approximately 200 to 300 RU in one experiment. […] Each hTLT-1 ECD-HPC4 protein was diluted to 100 nM, based on the calculated average Mw, into HBS-EP buffer and injected at 30 μl/min for 240s. […]
# [2] = molecular target: T2, TLT1 (human TLT-1, reagent of the SPR …); experiment: SPR (Biacore), mAb captured via anti-human Fc mAb, TLT1 as analyte
# Description: The mAbs of interest were either immobilized directly to a CM5 chip or by capture via a human Fc capture mAb immobilized to a CM5 chip.
# Capture via human Fc mAb: Human Fc mAb was immobilised to approx 10.000 RU. The mAb of interest was added (approx 100 nM). Two-fold dilutions of TLT1 from 200 nM to 0.2 nM were tested. Running and dilution buffer: 10 mM HEPES, 150 mM, 0.005% p20, pH 7.4. Regeneration was obtained in 3 M MgCl₂
binder,measurement,setting,value
"mAb 0061 HC2; LC2 (antibody, V domains shown, also called 0197-0000-0061; 0012HC.T60N + 0012LC.C36A) VH: EVKLLESGGGLVQPGGSLKLSCAASGFDFSRYWMTWVRQAPGKGLEWIGEINPDSSTINYNPSLKDKFIISRDNAKNTLYLQMSEVRSEDTALYYCASGVFTSWGQGTLVTVSA VL: DVVMTQTPLSLPVSLGDQASISCRSSQSLVHRNGNTYFHWALQKPGQSPKLLIYKVSNRFSGVPDRFSGSGSGTDFTLKISRVEAEDLGVYFCSQSTHVPYTFGGGTKLEIKR",binding result,[1],binds
same,Kd,[2],3.75 nM
same,koff,[2],0.0035 s⁻¹
same,kon,[2],932000 M⁻¹ s⁻¹

# From patent US20120178908A1 (Novo Nordisk, published 2012)
